Measurements taken from US20090214565A1 (BAYLOR RESEARCH INSTITUTE, published 2009).

Assays:
[1] = target: T1, IFN-α D (human, UniProt P0DY56 24-189); assay: ELISA, IFN subtype coated
T1 construct: Bought from PBL; Differs from IFN-α1 by Val at 114 as printed; also called IFNα protein subtype D [Val114]; (gene 1); D (1)
Protocol: Solid-phase binding of all 15 IFNα subtypes was evaluated for screening of MAb specificity by ELISA assay. Briefly, 50 μl/well of 1 μg/ml of a recombinant IFNα protein subtype were coated overnight at 4° C. on ELISA plates (NUNC MaxiSorp™) plates. Coated plates were blocked with PBS+1% BSA and incubated with 50 μl of 25 ng ACO candidate MAb in PBS for 1 hour at 37° C. The assays were developed by incubation with 50 μl/well of an HRP conjugated goat anti-mouse-IgG (Jackson ImmunoResearch) at room temperature for 30 minutes followed by incubation with 100 μl/well of TMB substrate solution (Zymed) for 15 minutes. The reaction was stopped with 100 μl/well of 1 N HCl and read at OD₄₅₀ on an ELISA plate reader.

[2] = target: T2, IFN-α F (human, UniProt P01568 24-189); assay: cell-based or functional assay
[3] = target: T3, IFN-α G (human, UniProt P01569 24-189); assay: cell-based or functional assay
T3 sequence (P01569 24-189): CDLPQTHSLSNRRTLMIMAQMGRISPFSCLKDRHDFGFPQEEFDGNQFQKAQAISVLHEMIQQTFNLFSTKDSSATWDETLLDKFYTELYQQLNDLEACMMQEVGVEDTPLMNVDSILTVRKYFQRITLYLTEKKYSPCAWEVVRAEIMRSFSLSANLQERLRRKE

[4] = target: T4, IFN-α I (human, UniProt P01571 24-189); assay: cell-based or functional assay
T4 sequence (P01571 24-189): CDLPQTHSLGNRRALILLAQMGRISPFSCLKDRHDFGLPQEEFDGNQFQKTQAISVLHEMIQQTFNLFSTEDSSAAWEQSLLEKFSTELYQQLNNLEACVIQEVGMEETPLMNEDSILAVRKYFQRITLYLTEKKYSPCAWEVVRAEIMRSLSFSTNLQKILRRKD

[5] = target: T5, IFN-α J1 (human, UniProt P01567 24-189); assay: cell-based or functional assay
T5 sequence (P01567 24-189 limits assumed): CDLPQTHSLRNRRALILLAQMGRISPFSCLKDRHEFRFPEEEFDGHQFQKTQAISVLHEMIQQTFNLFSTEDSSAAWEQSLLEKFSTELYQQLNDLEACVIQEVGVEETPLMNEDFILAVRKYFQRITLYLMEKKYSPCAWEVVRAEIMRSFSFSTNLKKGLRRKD

[6] = target: T6, IFN-α WA (human, UniProt P05015 24-189); assay: cell-based or functional assay
T6 sequence (P05015 24-189): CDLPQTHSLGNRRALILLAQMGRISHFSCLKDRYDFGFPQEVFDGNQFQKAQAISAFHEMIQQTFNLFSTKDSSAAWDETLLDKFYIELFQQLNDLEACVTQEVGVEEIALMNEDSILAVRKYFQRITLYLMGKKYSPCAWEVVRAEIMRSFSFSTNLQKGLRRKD

[7] = target: T7, IFN-α H2 (human, UniProt P01570 24-189); assay: cell-based or functional assay
T7 sequence (P01570 24-189): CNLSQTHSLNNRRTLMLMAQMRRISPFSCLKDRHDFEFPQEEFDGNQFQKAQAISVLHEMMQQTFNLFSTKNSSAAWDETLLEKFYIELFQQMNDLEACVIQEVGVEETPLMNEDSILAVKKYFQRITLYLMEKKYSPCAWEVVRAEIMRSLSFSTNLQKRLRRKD

[8] = target: T8, IFN-α C (human, UniProt P01566 24-189); assay: cell-based or functional assay
T8 sequence (P01566 24-189): as the sequence (P01571 24-189) above, with A19G, G37R, L38I, T51A, N95D, M106V, T132I, K134R, I161R counted along it

[9] = target: T9, IFN-α K (human, UniProt P05013 24-189); assay: cell-based or functional assay
T9 sequence (P05013 24-189): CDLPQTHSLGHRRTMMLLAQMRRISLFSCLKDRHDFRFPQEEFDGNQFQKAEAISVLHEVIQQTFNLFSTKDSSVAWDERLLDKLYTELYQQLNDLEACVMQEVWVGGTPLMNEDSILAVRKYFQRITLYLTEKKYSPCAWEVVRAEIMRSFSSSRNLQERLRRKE

[10] = target: T10, IFN-α4a (human, UniProt P05014 24-189, limits assumed); assay: cell-based or functional assay
T10 sequence (P05014 24-189 limits assumed): as the sequence (P01571 24-189) above, with P26H, L38F, Q40E, N46H, T51A, N95D, M106V, I161R counted along it

[11] = target: T2, IFN-α F; assay: cell-based or functional assay; remark: listed apart in the source
[12] = target: T1, IFN-α D; assay: cell-based or functional assay
[13] = target: T3, IFN-α G; assay: cell-based or functional assay; remark: listed apart in the source
[14] = target: T4, IFN-α I; assay: cell-based or functional assay; remark: listed apart in the source
[15] = target: T5, IFN-α J1; assay: cell-based or functional assay; remark: listed apart in the source
[16] = target: T6, IFN-α WA; assay: cell-based or functional assay; remark: listed apart in the source
[17] = target: T7, IFN-α H2; assay: cell-based or functional assay; remark: listed apart in the source
[18] = target: T8, IFN-α C; assay: cell-based or functional assay; remark: listed apart in the source
[19] = target: T9, IFN-α K; assay: cell-based or functional assay; remark: listed apart in the source
[20] = target: T10, IFN-α4a; assay: cell-based or functional assay; remark: listed apart in the source
[21] = target: T2, IFN-α F; assay: cell-based or functional assay; remark: listed apart in the source
[22] = target: T1, IFN-α D; assay: cell-based or functional assay; remark: listed apart in the source
[23] = target: T3, IFN-α G; assay: cell-based or functional assay; remark: listed apart in the source
[24] = target: T4, IFN-α I; assay: cell-based or functional assay; remark: listed apart in the source
[25] = target: T5, IFN-α J1; assay: cell-based or functional assay; remark: listed apart in the source
[26] = target: T6, IFN-α WA; assay: cell-based or functional assay; remark: listed apart in the source
[27] = target: T7, IFN-α H2; assay: cell-based or functional assay; remark: listed apart in the source
[28] = target: T8, IFN-α C; assay: cell-based or functional assay; remark: listed apart in the source
[29] = target: T9, IFN-α K; assay: cell-based or functional assay; remark: listed apart in the source
[30] = target: IFN-β (human, UniProt P01574 22-187); assay: cell-based or functional assay
Sequence of IFN-β (P01574 22-187 limits assumed): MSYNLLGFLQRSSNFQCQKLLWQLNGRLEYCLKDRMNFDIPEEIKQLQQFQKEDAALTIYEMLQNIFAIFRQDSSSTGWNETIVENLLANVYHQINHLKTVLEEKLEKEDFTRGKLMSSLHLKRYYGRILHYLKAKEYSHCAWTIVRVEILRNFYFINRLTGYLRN

[31] = target: T10, IFN-α4a; assay: cell-based or functional assay; remark: listed apart in the source
[32] = target: leukocyte IFN (Sigma); assay: cell-based or functional assay

T1 sequence (P0DY56 entry or part of it limits assumed): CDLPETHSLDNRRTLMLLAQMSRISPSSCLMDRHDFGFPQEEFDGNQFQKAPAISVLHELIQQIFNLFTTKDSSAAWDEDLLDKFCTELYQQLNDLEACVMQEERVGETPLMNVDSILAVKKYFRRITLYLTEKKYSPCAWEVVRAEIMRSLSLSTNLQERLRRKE
T2 sequence (P01568 24-189): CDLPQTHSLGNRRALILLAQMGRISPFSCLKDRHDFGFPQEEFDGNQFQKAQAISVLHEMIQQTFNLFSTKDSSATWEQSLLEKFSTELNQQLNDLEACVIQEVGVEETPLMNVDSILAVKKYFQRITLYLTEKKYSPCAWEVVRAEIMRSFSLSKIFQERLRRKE

B1: ACO-1 (antibody, V domains shown)
VH: QVQLQQPGAELVKPGASVKLSCKASGYTFTNYWMHWVKQRPGQGLEWIGEINPSHGRTIYNENFKSKATLTVDKSSITAFMQLSSLTSEDSAVYFCARGGLGPAWFAYWGQGTLVTVSA
VL: QIVLTQSPAIMSASPGEKVTLTCSAGSSVDSSYLYWYQQKPGSSPKLWIYSTSNLASGVPARFSGSGSGTSYSLTISSMEAEDAASYFCHQWSSYPFTFGSGTKLEIKR
notes: also called ACO-1 monoclonal antibody; hybridoma ATCC PTA-6557
binding result [1]: no binding (tested: <2-fold over matched controls; 25 ng MAb)
EC50 of neutralization, RG bioassay [2]: 146 ng/mL
EC50 of neutralization, RG bioassay [3]: 27.1 ng/mL
EC50 of neutralization, RG bioassay [4]: 13.5 ng/mL
EC50 of neutralization, RG bioassay [5]: 168 ng/mL
EC50 of neutralization, RG bioassay [6]: 84.8 ng/mL
EC50 of neutralization, RG bioassay [7]: 153 ng/mL
EC50 of neutralization, RG bioassay [8]: 0.56 ng/mL
EC50 of neutralization, RG bioassay [9]: 235 ng/mL
EC50 of neutralization, RG bioassay [10]: 2.11 ng/mL
percentage neutralization, CPE assay [11]: 96.6%
percentage neutralization, CPE assay [12]: 33%
percentage neutralization, CPE assay [13]: 99%
percentage neutralization, CPE assay [14]: 98%
percentage neutralization, CPE assay [15]: 98.1%
percentage neutralization, CPE assay [16]: 88.7%
percentage neutralization, CPE assay [17]: 95.9%
percentage neutralization, CPE assay [18]: 99.4%
percentage neutralization, CPE assay [19]: 98.3%
percentage neutralization, CPE assay [20]: 82.9%
percentage neutralization, RG assay [21]: 83.7%
percentage neutralization, RG assay [22]: 12.5%
percentage neutralization, RG assay [23]: 92.7%
percentage neutralization, RG assay [24]: 87.1%
percentage neutralization, RG assay [25]: 83.9%
percentage neutralization, RG assay [26]: 86.9%
percentage neutralization, RG assay [27]: 77.5%
percentage neutralization, RG assay [28]: 91.4%
percentage neutralization, RG assay [29]: 77.9%
percentage neutralization, RG assay [30]: 9%
percentage neutralization, RG assay [31]: 67.8%
neutralization of 600 pg leukocyte IFN, RG bioassay [32]: > 50%
